T1: mouse MSR1 on RAW264.7 cells (mouse, UniProt P30204 1-458)
T1 construct: whole, on cells
T1 sequence (looked up): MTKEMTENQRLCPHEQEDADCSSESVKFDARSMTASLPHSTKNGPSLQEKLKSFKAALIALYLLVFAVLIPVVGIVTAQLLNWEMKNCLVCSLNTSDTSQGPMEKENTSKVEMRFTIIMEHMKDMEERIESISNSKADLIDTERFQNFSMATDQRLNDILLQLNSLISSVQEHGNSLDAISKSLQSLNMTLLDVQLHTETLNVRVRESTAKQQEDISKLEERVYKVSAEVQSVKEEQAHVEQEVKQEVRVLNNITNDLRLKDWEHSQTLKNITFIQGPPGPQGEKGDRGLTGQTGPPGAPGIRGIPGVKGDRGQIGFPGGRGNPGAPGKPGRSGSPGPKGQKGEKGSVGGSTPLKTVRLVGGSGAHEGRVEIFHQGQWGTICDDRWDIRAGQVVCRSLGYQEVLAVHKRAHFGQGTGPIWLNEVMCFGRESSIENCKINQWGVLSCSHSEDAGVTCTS

T2: full length human MSR1 with a C-terminal Myc tag on HEK293.Myc.hMSR1 cells (human, UniProt P21757 1-451)
T2 construct: whole, on cells
T2 sequence (looked up): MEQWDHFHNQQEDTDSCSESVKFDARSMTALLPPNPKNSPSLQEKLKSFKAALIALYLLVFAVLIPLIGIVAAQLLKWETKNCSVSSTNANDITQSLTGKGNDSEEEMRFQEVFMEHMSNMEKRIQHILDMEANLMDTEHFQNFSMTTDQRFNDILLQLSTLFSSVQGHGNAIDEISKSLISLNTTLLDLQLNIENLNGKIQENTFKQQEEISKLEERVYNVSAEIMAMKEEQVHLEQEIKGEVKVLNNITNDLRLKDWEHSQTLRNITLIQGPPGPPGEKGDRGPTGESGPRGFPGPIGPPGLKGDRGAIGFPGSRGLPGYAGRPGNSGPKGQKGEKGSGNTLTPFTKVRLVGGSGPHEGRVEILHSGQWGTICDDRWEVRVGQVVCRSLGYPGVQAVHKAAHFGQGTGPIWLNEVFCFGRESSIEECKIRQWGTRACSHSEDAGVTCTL

T3: full length monkey MSR1 on HEK293.mfMSR1 cells (Macaca fascicularis, UniProt A0A2K5UWE2 1-451)
T3 construct: whole, on cells
T3 sequence: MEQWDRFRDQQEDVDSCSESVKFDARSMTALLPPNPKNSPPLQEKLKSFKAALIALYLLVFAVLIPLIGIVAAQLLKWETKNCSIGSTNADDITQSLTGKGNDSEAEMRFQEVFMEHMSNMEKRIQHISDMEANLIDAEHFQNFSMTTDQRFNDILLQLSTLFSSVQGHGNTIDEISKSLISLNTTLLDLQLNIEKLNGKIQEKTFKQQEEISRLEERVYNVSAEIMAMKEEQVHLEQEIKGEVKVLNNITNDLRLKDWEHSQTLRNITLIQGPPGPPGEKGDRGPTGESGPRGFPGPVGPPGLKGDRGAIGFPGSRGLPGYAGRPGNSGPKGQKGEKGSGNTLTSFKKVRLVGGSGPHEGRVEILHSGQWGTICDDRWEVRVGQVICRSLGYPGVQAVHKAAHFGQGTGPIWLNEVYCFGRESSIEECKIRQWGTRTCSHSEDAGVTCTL

B1: H1H27751P-N297Q (antibody, human IgG1, V domains shown)
VH: EVQLVESGGGLVQPGGSLRLSCAASGFTFSNYAMHWVRQAPGKGLEYVSAISSNGGSTYYADSVKGRITISRDNSKNTLYLQMGSLRAEDMAVYYCARGRPYYYYFGMDVWGQGTTVTVSS
VL: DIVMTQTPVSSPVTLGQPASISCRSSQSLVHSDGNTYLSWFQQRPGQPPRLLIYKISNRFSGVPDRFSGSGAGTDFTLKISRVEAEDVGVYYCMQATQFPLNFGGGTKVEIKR
notes: human IgG1 Fc with N297Q
B2: H1H27761P2-N297Q (antibody, human IgG1, V domains shown)
VH: EVQLVESGGDLVQPGGSLRLSCSASGFTFNIYAMSWVRQAPGKGLEWVSGISGSGGSTYYADSVKGRFTISRDNSKNTLYFQMNSLRVEDTAVYYCAKKISSSSYYYYAMDVWGQGTTVTVSS
VL: not shown
notes: human IgG1 Fc with N297Q; also called H1H27761P-N297Q
B3: H1H27729P-N297Q (antibody, human IgG1, V domains shown)
VH: QVQLVESGGGLVKPGGSLRLSCAASGFIFSDYYMSWIRQAPGKGLEWVSYISSSGTTIYGDSVKGRFTMSRDNAKNSLYLQMNSLRAEDTAVYYCARNYALFDYWGQGTLVTVSS
VL: DIQMTQSPSSLSASVGDRVTITCQASQDISKYLNWYQQKPGKAPKLLIYYTSNLETGVPSRFSGSGSGTDFTFTISSLQPEDIATYYCHQSDYLPFTFGPGTKVDIKR
notes: human IgG1 Fc with N297Q
B4: H1H27759P2-N297Q (antibody, human IgG1, V domains shown)
VH: EVQLVESGGGFVQPGGSLRLSCAASGFTFSSYAMSWVRQAPGKGLEWVSAISGTGSNTYYADSVKGRFTISRDNSKNTLYLQMNSLRAEDTAVYYCAKDRVTTVTYYFDYWGQGTLVTVSS
VL: not shown
notes: human IgG1 Fc with N297Q; also called H1H27759P-N297Q
B5: H1H27762P2-N297Q (antibody, human IgG1, V domains shown)
VH: QVQLVQSGAEVKKPGSSVKVSCKASGGTFSRYDISWVRQAPGQGLEWMGGIIPIFGTSNYAQKFQGRVTITTDESTSTVYMELSSLRSEDTAVYYCARGGRYGWFDPWGQGTLVTVSS
VL: not shown
notes: human IgG1 Fc with N297Q; also called H1H27762P-N297Q
B6: H1H27766P2-N297Q (antibody, human IgG1, V domains shown)
VH: EVQLVESGGGLVQPGGSLRLSCAASGFTFSSFAMSWVRQAPGKELEWVSSISGRGGSTYYADSVRGRFTISRDNSKITLYLQMNSLRAEDTAVYYCAKDIVFRYTSSAYWYFDLWGRGTLVTVSS
VL: not shown
notes: human IgG1 Fc with N297Q; also called H1H27766P-N297Q
B7: H1H27734P-N297Q (antibody, human IgG1, V domains shown)
VH: EVQLVESRGGLVQPGGSLRLSCAASGFTFSSYAMSWVRQAPGKGLEWVSAISGSGGSTFYADSVKGRFTISRDNSKNTVYLQMNSLRAEDTAVYYCAKALVLRFLEWLGDYWGQGTLVTVSS
VL: DIQMTQSPSTLSASVGDRVTITCRASQSISSWLAWFQQKPGKAPKLLIYKASSLESGVPSRFSGSGSGTEFTLTISSLQPDDFATYYCQQYKSYWTFGQGTKVEIKR
notes: human IgG1 Fc with N297Q
B8: H1H27739P-N297Q (antibody, human IgG1, V domains shown)
VH: EVQLVESGGGLVQPGGSLRLSCTASGFTFSSYAMSWVRQAPGKGLEWVSAISGTGSSTYFTDSVKGRFAISRDNSKNTLYLQMNSLRAEDTAVYYCAKDGEWLSTVTLFDYWGQGTLVTVSS
VL: EIVMTQSPATLSVSPGERATLSCRASQSVSSNLAWYQQKPGQAPRLLIYGASTRATGIPARFSGSGSGTDFTLTISSLQSEDFALYYCQQYFIWPPHPTFGPGTKVDIKR
notes: human IgG1 Fc with N297Q
B9: H1H27731P-N297Q (antibody, V domains shown)
VH: QLQLQESGPGLVKPSETLSLTCTVSGGSISRISYYWGWIRQPPGKGLEWIGSIYDSGSTYYNPSLKSRVTISIDTSKNQFSLKLSSVTAADTAVYYCVRYSSSSAFAFDYWGQGTLVTVSS
VL: DIQMTQSPSSVSASVGDRVTITCRASQGISSWLAWYQQKPGKAPKLLIYAASSLQSGVPSRFSGSGSGTDFTLTISSLQPEDFATYYCQQANSFPFTFGPGTKVDIKR
notes: human IgG1 Fc with N297Q
B10: H1H27747P-N297Q (antibody, human IgG1, V domains shown)
VH: QVQLVESGGAVVQPGRSLRLSCAASGFTFSYYGMHWVRQAPGKGLEWVAVISYDGSKKYYADSVKGRFTISRDNSKNTLYLQMNSLRAEDTAVYYCAKDLTVDFYYGMDVWGQGTTVTVSS
VL: B9 VL with A51T, V58A, Y87F, F96Y, P100Q, V104L, D105E
notes: human IgG1 Fc with N297Q
B11: H1H27754P-N297Q (antibody, human IgG1, V domains shown)
VH: EVQLVESGGGLVQPGGSLRLSCAASGFTFRTYAMTWVRQAPGKGLDWVSAITGDGGNTYYADSVKGRFTISRDNSKNTLYLQMNSLRAEDTAIYYCAKDQRFSFALYYFDYWGQGTLVTVSS
VL: B9 VL with K42N, S52F, S93N, F96W, P100Q, D105E
notes: human IgG1 Fc with N297Q
B12: H1xH29282P2 (antibody, V domains shown)
VH: EVQLVESGGGLVQPGGSLRLSCAASGFTFSTYAMSWVRQAPGKGLEWVSTISGRSDITYFADSVKGRFTVSRDNSKTTLYLQMNSLRAEDTAVYYCATDDDLPLDYWGQGTLVTVSS
VL: not shown
notes: prefix H1xH not explained for the anti-MSR1 antibodies
B13: H2aM21229N (antibody, mouse IgG2a, V domains shown)
VH: EVQLVESGGGLVKPGGSLRLSCAASGFTFSRYSMNWVRQAPGKGLEWVSSISSSSSYIYYGDTVKGRFTISRDNAKKSLYLQMNSLRAEDTAVYYCVRDRGQLVLYFDYWGQGTLVTVSS
VL: DIQMTQSPASLSTSIRDRVTITCRASLSISSFLNWFQQRPGKAPKLLIYVASNLQSGVPSRFSDSGSGTDFTLTISSLQPEDFATYYCQQNYSTPPITFGQGTRLEIK
notes: mouse IgG2a Fc

Where a chain is given by its changes, count along the chain named. In names and notes the source's numbering stands.

One assay has as its target T1, mouse MSR1 on RAW264.7 cells. The experiment in a line: flow cytometry, RAW264.7 cells, 10 ug/mL.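 Note: antibodies bound to RAW264.7 cells for 30 min on ice after Fc block with mouse IgG, S/N is MFI relative to unstained cells.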 For orientation: In flow cytometry, cells or beads pass a laser one at a time.
Procedure: To block binding to Fc receptors, RAW264.7 cells were incubated for 30 minutes at 4° C. with 500 μg/mL mouse IgG (Jackson ImmunoResearch, Cat #015-000-003) diluted in staining buffer, while B16F10.9 cells remained in staining buffer. Following Fc receptor blocking, 10 μg/mL of anti-MSR1 antibodies or an isotype control antibody were added to the cells and were subsequently incubated for 30 minutes on ice. […] The signal to noise (S/N) was determined by calculating the ratio of the anti-MSR1 antibodies or the control antibodies MFI to the unstained sample MFI (Table 16).
Regarding B1, the MFI was 3820 and the S/N amounted to 1.
B2 showed an MFI of 3840 and a S/N of 1.
For B3, in that order: 3480 and 1.
The molecule B4 came in with an MFI of 3290 and a S/N of 1.
In the case of B5, the MFI was 3520 and the S/N turned out to be 1.
For B6 the same measures were 3810 and 1.
For B7 the same measures were 4780 and 1.
For B8 the same measures were 3270 and 1.
B9 registered an MFI of 3510 and a S/N of 1.
On to B10, for which the MFI was found to be 3630 and the S/N was found to be 1.
For B11 the same measures were 5410 and 1.

For a further assay, the target named is T2, full length human MSR1 with a …. The experiment in a line: ECL cell binding, HEK293.Myc.hMSR1.
Procedure: (§1) All cells were washed once with 1×PBS with Ca²⁺/Mg²⁺ and counted with a Cellometer™ Auto T4 cell counter (Nexcelom Bioscience). Approximately 1.0×10⁴ cells were seeded separately onto 96-well carbon electrode plates [MULTI-ARRAY high bind plate, Meso Scale Diagnostics] and incubated for 1 hour at 37° C. Non-specific binding sites were then blocked by 2% BSA (w/v) in PBS with Ca²⁺/Mg²⁺ for 1 hour at room temperature. THP-1 cells were pre-incubated for 0.5 hours at room temperature in sample dilution buffer with: 1) 1 mg/mL Fc receptor block reagents to block Fc gamma receptors on THP-1 cell surface [whole molecule human IgG (Jackson Immunoresearch, Cat #009-000-003) for wells being tested with anti-MSR1-mFc antibodies or 2) whole molecule mIgG (Jackson Immunoresearch, Cat #015-000-003) for wells being tested with anti-MSR1-hFc antibodies. Antibody binding on HEK293.Myc.hMSR1, HEK293.mfMSR1 and HEK293 cells was tested without Fc receptor block reagents. […] Plates were then washed to remove unbound antibodies an AquaMax2000 plate washer with a cell washing head (MDS Analytical Technologies). […] Plates were washed and developed with Read Buffer (Meso Scale Diagnostics, Cat #R92TD-2) according to manufacturer's recommended procedure and luminescent signals were recorded with a SECTOR Imager 600 (Meso Scale Diagnostics). Luminescence intensity, measured in relative light units (RLU), was recorded to indicate the binding intensity of each antibody at the range of concentrations.
For B1, the “binding signal ratio to isotype control (11 nM)” value (“binding signal ratio” for short) turned out to be 63 fold.
B2: the “binding signal ratio” value was 23 fold.
Still for that read-out and setting: next, B3: 17 fold.
With B4, the “binding signal ratio” value was 23 fold.
Still for that read-out and setting: the result for B5 reads 33 fold.
Regarding B6, the “binding signal ratio” value worked out at 20 fold.
As for B12, the “binding signal ratio” value came to 9 fold.
On to B13, for which the “binding signal ratio” value was found to be 78 fold.
Take B7: the “binding signal ratio” value stood at 40 fold.
With B8, the “binding signal ratio” value was 22 fold.
With B9, the “binding signal ratio” value was found to be 48 fold.
As for B10, the “binding signal ratio” value came out at 26 fold.
For the molecule B11, the “binding signal ratio” value stood at 55 fold.

The target of a further assay is T3, full length monkey MSR1 on …. The experiment in a line: ECL cell binding, HEK293.mfMSR1.
Procedure: as §1
Turning to B1, the “binding signal ratio” value amounted to 49 fold.
In the case of B2, the “binding signal ratio” value came to 15 fold.
For the molecule B3, the “binding signal ratio” value was found to be 6 fold.
As for B4, the “binding signal ratio” value came out at 25 fold.
Turning to B5, the “binding signal ratio” value came out at 25 fold.
The same measure, in the same setting: the result for B6 reads 13 fold.
On to B12, for which the “binding signal ratio” value was determined as 1 fold.
On the same count and under the same terms, next, B13: 27 fold.
B7: the “binding signal ratio” value was found to be 28 fold.
Take B8: the “binding signal ratio” value came to 20 fold.
Consider B9, for which the “binding signal ratio” value amounted to 43 fold.
The same measure, in the same setting: next, B10: 21 fold; B11: 53 fold.

The record behind these values is patent publication US20200368361A1 (Regeneron, published 2020).
